Experimental data published in publication PMC9891371.
Values joined by “and” are separate entries in the source; they are usually repeats but may differ in a detail not shown here. Identical values can stand only once. Each block holds one substance with its values, some of them ahead of it.

Columns and labels:
[1] = molecular target: ZE-fused ferritin, N-terminal fusion (ZE-HF) cage (human); test: TEM
[2] = molecular target: ZE-mi3 cage (His tag and ZE fused to the N-terminus of the designed protein cage mi3); test: TEM
[3] = molecular target: ZE-mi3 cage (His tag and ZE fused to the N-terminus of the designed protein cage mi3); test: native gel or EMSA
[4] = molecular target: ZE-fused ferritin, C-terminal fusion (HF-ZE) cage (human); test: TEM + native gel or EMSA
[5] = molecular target: ZE-fused ferritin, N-terminal fusion (ZE-HF) cage (human); test: native gel or EMSA
[6] = molecular target: C-terminal ZR-fused ferritin (HF-ZR) cage, 15 residue linker (human); test: negative-stain TEM

- stoichiometry N (HF-ZR cages per ZE-HF cage) [1]: 4 and 6
- stoichiometry N (HF-ZR cages per mi3 cage) [2]: 12
- stoichiometry N (HF-ZR cages per ZE-mi3 cage) [3]: 12
- stoichiometry N (HF-ZR cages per HF-ZE cage) [4]: 1 and 3
Substance: C-terminal ZR-fused ferritin (HF-ZR) cage, 15 residue linker (designed binder)

- stoichiometry N (GFPs per ferritin cage) [5]: 20 to 24
Substance: GFP-ZR (ZR fusion to the GFP C-terminus) (designed binder)

- stoichiometry N (GFPs observed per cage) [6]: 1 and 3
Substance: ZE-GFP (ZE-fused GFP) (designed binder)
